T1: cynomolgus monkey CDH6 (on cells) (cynomolgus monkey, UniProt P55285 54-790 (human entry))
T1 construct: Expressed from pcDNA3.1-cynoCDH6; also called cynoCDH6
T1 sequence: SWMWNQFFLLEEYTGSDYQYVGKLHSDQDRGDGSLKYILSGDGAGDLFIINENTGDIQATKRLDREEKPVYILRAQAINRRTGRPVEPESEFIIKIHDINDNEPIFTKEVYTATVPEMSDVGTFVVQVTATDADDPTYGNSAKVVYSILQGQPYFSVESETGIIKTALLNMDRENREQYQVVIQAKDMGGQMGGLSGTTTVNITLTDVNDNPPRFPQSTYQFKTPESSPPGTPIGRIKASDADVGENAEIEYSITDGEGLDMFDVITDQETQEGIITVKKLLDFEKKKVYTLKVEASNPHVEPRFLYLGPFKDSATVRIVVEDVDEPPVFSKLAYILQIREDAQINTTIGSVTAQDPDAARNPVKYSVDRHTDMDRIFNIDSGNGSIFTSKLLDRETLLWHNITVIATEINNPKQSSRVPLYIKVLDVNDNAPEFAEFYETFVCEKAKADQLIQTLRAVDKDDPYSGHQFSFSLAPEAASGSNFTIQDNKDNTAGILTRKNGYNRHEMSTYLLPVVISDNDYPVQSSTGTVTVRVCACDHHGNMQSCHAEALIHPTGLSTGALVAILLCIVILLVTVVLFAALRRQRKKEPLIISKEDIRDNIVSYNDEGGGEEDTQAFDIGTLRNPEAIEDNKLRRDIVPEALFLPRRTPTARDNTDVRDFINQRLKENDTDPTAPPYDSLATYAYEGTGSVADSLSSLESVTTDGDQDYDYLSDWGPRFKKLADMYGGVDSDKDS

T2: Recombinant Human CDH6 Fc His chimera (R&D Systems, Inc.) (human, UniProt P55285 54-615)
T2 construct: Bought product; also called the antigen; human CDH6 antigen
T2 sequence: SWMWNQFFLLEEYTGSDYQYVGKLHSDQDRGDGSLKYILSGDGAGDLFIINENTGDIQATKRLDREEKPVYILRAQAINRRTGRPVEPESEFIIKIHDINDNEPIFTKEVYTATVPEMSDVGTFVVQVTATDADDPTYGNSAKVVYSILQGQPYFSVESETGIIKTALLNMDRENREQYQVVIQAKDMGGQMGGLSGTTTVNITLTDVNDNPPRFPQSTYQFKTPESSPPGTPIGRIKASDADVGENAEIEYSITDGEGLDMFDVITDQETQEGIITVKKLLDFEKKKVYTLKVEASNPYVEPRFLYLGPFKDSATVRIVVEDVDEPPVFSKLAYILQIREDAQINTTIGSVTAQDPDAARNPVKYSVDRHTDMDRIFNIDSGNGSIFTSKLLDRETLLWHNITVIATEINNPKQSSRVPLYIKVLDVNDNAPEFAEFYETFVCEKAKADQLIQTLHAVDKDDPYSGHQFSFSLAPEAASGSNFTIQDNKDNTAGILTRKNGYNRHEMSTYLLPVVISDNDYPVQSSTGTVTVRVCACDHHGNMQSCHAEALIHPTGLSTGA


Legend:
[1] = target: T1, cynomolgus monkey CDH6 (on cells); assay: Cell-ELISA and flow cytometry screening of hybridoma supernatants on transfected cells
Description: A coloring reaction was carried out with occasional stirring. Thereafter, 1 M HCl was added to the plate (100 μL/well) to terminate the coloring reaction, followed by measurement of the absorbance at 490 nm using a plate reader (ENVISION: PerkinElmer, Inc.).
The binding specificity to cynomolgus monkey CDH6 of an antibody produced from the human CDH6- and cynomolgus monkey CDH6-binding antibody-producing hybridomas that had been selected by Cell-ELISA in Example 1)-4 was further confirmed by flow cytometry. […] Thereafter, the cells were suspended by the addition of the culture supernatant from each hybridoma. The cells were left standing at 4° C. for 1 hour. The cells were washed twice with PBS supplemented with 5% FBS, and thereafter, the cells were suspended by the addition of Anti-Rat IgG FITC conjugate (Sigma-Aldrich Co. LLC) that had been 500-fold diluted with PBS supplemented with 5% FBS. The cells were left standing at 4° C. for 1 hour. The cells were washed twice with PBS supplemented with 5% FBS, and then re-suspended in PBS supplemented with 5% FBS and 2 μg/ml 7-aminoactinomycin D (Molecular Probes, Inc.), followed by detection using a flow cytometer (FC500; Beckman Coulter, Inc.). The data was analyzed using FlowJo (Tree Star, Inc.). After dead cells were removed from analysis by gating out 7-aminoactinomycin D-positive cells, a histogram of the FITC fluorescence intensity of live cells was generated.

[2] = target: T2, Recombinant Human CDH6 Fc His chimera …; assay: SPR (Biacore T200), antigen captured by anti-His antibody, antibody as analyte, steady state affinity model
Description: The dissociation constant between the antibody and the antigen (Recombinant Human CDH6 Fc His chimera, R&D Systems, Inc.) was measured by using Biacore T200 (GE Healthcare Biosciences Corp.), according to a capture method, which comprises capturing the antigen as a ligand with the immobilized anti-His antibody and then measuring the dissociation constant using an antibody as an analyte. Approximately 1000 RU of the anti-histidine antibody (His capture kit, GE Healthcare Biosciences Corp.) was covalently bound to sensor chip CM5 (GE Healthcare Biosciences Corp.) by the amine coupling method. The antibody was also immobilized onto reference cells in the same manner as above. HBS-P+ (10 mM HEPES pH 7.4, 0.15 M NaCl, 0.05% Surfactant P20) supplemented with 1 mM CaCl₂ was used as a running buffer. The antigen was added onto the anti-histidine antibody-immobilized chip for 60 seconds, and a dilution series solution (0.391 to 100 nM) of the antibody was then added at a flow rate of 30 μl/min for 300 seconds. Subsequently, the dissociation phase was monitored for 600 seconds. As a regeneration solution, a glycine solution (pH 1.5) supplemented with 5 M MgCl2 was added twice at a flow rate of 10 μl/min for 30 seconds. A Steady State Affinity model in analysis software (BIAevaluation software, version 4.1) was used in data analysis, and the dissociation constant (KD) was calculated.

| binding result [1] | Kd [2] [nM] | Binder |
| --- | --- | --- |
| binds |  | rG055 antibody (antibody, V domains shown, Rat monoclonal purified from hybridoma; also called rat anti-CDH6 monoclonal antibody clone rG055) VH: EVQLQESGPGLVRPSQSLSLSCSVTDYSITSNYWGWIRRFPGNKMEWMGYITYSGYTSYNPSLQSRISITRDTSKNQFFLQLNSVTAEDTATYYCARSINHGGYSYVVDAWGPGASVTVSS VL: DVQMTHSPSYLAASPGESVSISCKTSKNISNYLVWYQQKPGEAYKLLIYSGSTLQSGTPSRFSGSGSGTDFTLTIRSLEPEDFGLYFCQQYYEKPFTFGSGTKLEIKR |
| binds |  | rG061 antibody (antibody, V domains shown, Rat monoclonal purified from hybridoma; also called rat anti-CDH6 monoclonal antibody clone rG061) VH: EVQLQESGPGLVKPSQSLSLTCSVTGYSITTYYWGWIRKFPGNKMEWMGYISYSGRTSYNPSLKSRMSITRDASKNQFFLQLNSVTTDDTATYYCARSPINHGGYWYFDFWGPGTMVTVSS VL: DVQMTQSPSYLAASPGESVSISCKATKSISNYLAWYQQKPGEAYKVLIYSGSTLQSGTPSRFSGSGSGTDFTLTIRSLEPEDFGLYSCQQYYEKPLTFGSGTKLEIKR |
| binds |  | rG019 antibody (antibody, V domains shown, Rat monoclonal purified from hybridoma; also called rat anti-CDH6 monoclonal antibody clone rG019) VH: QVQLQQSGAELVKPGSSVKISCKASGYTFTRNFMHWIKQQPGNGLEWIGWIYCGDGETEYNQKFNGKATLTADRSSSTAYMELSRLTSEDSAVYFCARGVYGGFAGGYFDFWGQGVMVTVSS VL: DIQMTQSPSLLSASVGDRVTLNCKASQNIYKNLAWYQQKLGEGPKLLIYDANTLQTGIPSRFSGSGSGSDFTLTISSLQPEDVATYFCQQYYSGWAFGGVTNLELKRA |

More lines, now with the values behind:

| Binder | binding result [1] | Kd [2] [nM] |
| --- | --- | --- |
| rG056 antibody (antibody, V domains shown, Rat monoclonal purified from hybridoma; also called rat anti-CDH6 monoclonal antibody clone rG056) VH: EVQLQESGPGLVKPSQSLSLTCSVTDYSITTYFWGWIRKFPGNKMEWMGYMSYRGGTSYNPSLKSRISITRDTSKNQFFLQLNSVTTEDTATYYCARCPNYGGHSLVFDYWGQGVMVTVSS VL: DVQMTQSPSSLAASPGESVSISCRATKSIGIYLAWYQQKPGKTFKLLIYSGSTLQSGTPSRFSGSGSGTDFTLTIRSLEPEDFGLYFCQQFYENPFTFGSGTKLEIRR | binds |  |
| H02L02 antibody (antibody, human IgG1, kappa, V domains shown, Humanized IgG1/kappa (hH02 + hL02); also called humanized hG019 antibody H02L02) VH: EVQLVQSGAEVKKPGASVKVSCKASGYTFTRNFMHWVRQAPGQGLEWMGWIYPGDGETEYNQKFQGRVTITADRSTSTAYMELSSLRSEDTAVYFCARGVYGGFAGGYFDFWGQGTLVTVSS VL: DIQMTQSPSSLSASVGDRVTITCKASQNIYKNLAWYQQKPGKAPKLLIYDANTLQTGVPSRFSGSGSGSDFTLTISSLQPEDFATYFCQQYYSGWAFGQGTKVEIKR |  | 1.1 |
| H01L02 antibody (antibody, human IgG1, kappa, V domains shown, Humanized IgG1/kappa (hH01 + hL02); also called humanized hG019 antibody H01L02; labeled H01L02) VH: EVQLVQSGAEVKKPGASVKVSCKASGYTFTRNFMHWVRQAPGQGLEWMGWIYPGDGETEYAQKFQGRVTITADTSTSTAYMELSSLRSEDTAVYYCARGVYGGFAGGYFDFWGQGTLVTVSS VL: DIQMTQSPSSLSASVGDRVTITCKASQNIYKNLAWYQQKPGKAPKLLIYDANTLQTGVPSRFSGSGSGSDFTLTISSLQPEDFATYFCQQYYSGWAFGQGTKVEIKR |  | 1.5 |
| H02L03 antibody (antibody, human IgG1, kappa, V domains shown, Humanized IgG1/kappa (hH02 + hL03); also called humanized hG019 antibody H02L03) VH: EVQLVQSGAEVKKPGASVKVSCKASGYTFTRNFMHWVRQAPGQGLEWMGWIYPGDGETEYNQKFQGRVTITADRSTSTAYMELSSLRSEDTAVYFCARGVYGGFAGGYFDFWGQGTLVTVSS VL: DIQMTQSPSSLSASVGDRVTITCKASQNIYKNLAWYQQKLGEGPKLLIYDANTLQTGVPSRFSGSGSGTDFTLTISSLQPEDFATYYCQQYYSGWAFGQGTKVEIKR |  | 1.4 |
| H04L02 antibody (antibody, human IgG1, kappa, V domains shown, Humanized IgG1/kappa (hH04 + hL02); also called humanized hG019 antibody H04L02) VH: QVQLVQSGAEVKKPGASVKVSCKASGYTFTRNFMHWIRQAPGQGLEWMGWIYPGDGETEYAQKFQGRVTLTADRSTSTAYMELSSLRSEDTAVYYCARGVYGGFAGGYFDFWGQGTLVTVSS VL: DIQMTQSPSSLSASVGDRVTITCKASQNIYKNLAWYQQKPGKAPKLLIYDANTLQTGVPSRFSGSGSGSDFTLTISSLQPEDFATYFCQQYYSGWAFGQGTKVEIKR |  | 1.1 |
